Source: the Human Domainome abundance scans (Beltran et al. 2025)
± gives the uncertainty stated by the source.

B1: SWI/SNF complex subunit SMARCC2, residues 599 to 641; numbered along this chain, Q8TAQ2 (parent)
chain: REWTEQETLLLLEALEMYKDDWNKVSEHVGSRTQDECILHFLR

Variants of: B1
Assay: abundance fitness (aPCA) (normalised: wild type 0, dead -1); higher = more abundant; growth selection in yeast, the domain comes from the species named
Settings: Homo sapiens

Variant	abundance fitness
REWTEPETLLLLEALEMYKDDWNKVSEHVGSRTQDECILHFLR	0.026 ± 0.069
REWTETETLLLLEALEMYKDDWNKVSEHVGSRTQDECILHFLR	-0.191 ± 0.11
REWTEYETLLLLEALEMYKDDWNKVSEHVGSRTQDECILHFLR	-0.206 ± 0.31
REWTENETLLLLEALEMYKDDWNKVSEHVGSRTQDECILHFLR	0.046 ± 0.18
REWTEWETLLLLEALEMYKDDWNKVSEHVGSRTQDECILHFLR	-0.025 ± 0.1
REWTERETLLLLEALEMYKDDWNKVSEHVGSRTQDECILHFLR	-0.003 ± 0.069
REWTEVETLLLLEALEMYKDDWNKVSEHVGSRTQDECILHFLR	-0.117 ± 0.095
REWTESETLLLLEALEMYKDDWNKVSEHVGSRTQDECILHFLR	-0.015 ± 0.076
REWTEQETLLLLEELEMYKDDWNKVSEHVGSRTQDECILHFLR	-0.776 ± 0.3
REWTEQETLLLLEGLEMYKDDWNKVSEHVGSRTQDECILHFLR	0.062 ± 0.064
REWTEQETLLLLECLEMYKDDWNKVSEHVGSRTQDECILHFLR	-0.804 ± 0.16
REWTEQETLLLLEDLEMYKDDWNKVSEHVGSRTQDECILHFLR	-0.806 ± 0.45
REWTEQETLLLLEFLEMYKDDWNKVSEHVGSRTQDECILHFLR	-1.05 ± 0.21
REWTEQETLLLLEHLEMYKDDWNKVSEHVGSRTQDECILHFLR	-1.05 ± 0.2
REWTEQETLLLLRALEMYKDDWNKVSEHVGSRTQDECILHFLR	-0.172 ± 0.067
REWTEQETLLLLNALEMYKDDWNKVSEHVGSRTQDECILHFLR	-0.415 ± 0.15
REWTEQETLLLLDALEMYKDDWNKVSEHVGSRTQDECILHFLR	-0.182 ± 0.11
REWTEQETLLLLTALEMYKDDWNKVSEHVGSRTQDECILHFLR	-0.181 ± 0.079
REWTEQETLLLLVALEMYKDDWNKVSEHVGSRTQDECILHFLR	-0.469 ± 0.089
REWTEQETLLLLIALEMYKDDWNKVSEHVGSRTQDECILHFLR	-0.742 ± 0.25
REWTEQETLLLLGALEMYKDDWNKVSEHVGSRTQDECILHFLR	-0.215 ± 0.074
REWTEQETLLLLFALEMYKDDWNKVSEHVGSRTQDECILHFLR	-0.887 ± 0.27
REWTEQETLLLLHALEMYKDDWNKVSEHVGSRTQDECILHFLR	-0.264 ± 0.17
REWTEQETLLLLSALEMYKDDWNKVSEHVGSRTQDECILHFLR	-0.304 ± 0.071

Variant	abundance fitness
REWTEQETLLLLLALEMYKDDWNKVSEHVGSRTQDECILHFLR	-0.598 ± 0.086
REWTEQETLLLLAALEMYKDDWNKVSEHVGSRTQDECILHFLR	-0.028 ± 0.081
REWTEQETLLLLWALEMYKDDWNKVSEHVGSRTQDECILHFLR	-0.697 ± 0.19
REWTEQETLLLLQALEMYKDDWNKVSEHVGSRTQDECILHFLR	-0.34 ± 0.093
REWTEQETLLLLMALEMYKDDWNKVSEHVGSRTQDECILHFLR	-0.222 ± 0.099
REWTEQERLLLLEALEMYKDDWNKVSEHVGSRTQDECILHFLR	0.354 ± 0.054
REWTEQEWLLLLEALEMYKDDWNKVSEHVGSRTQDECILHFLR	-0.205 ± 0.076
REWTEQEDLLLLEALEMYKDDWNKVSEHVGSRTQDECILHFLR	-0.177 ± 0.33
REWTEQEKLLLLEALEMYKDDWNKVSEHVGSRTQDECILHFLR	0.075 ± 0.087
REWTEQEQLLLLEALEMYKDDWNKVSEHVGSRTQDECILHFLR	0.316 ± 0.069
REWTEQEMLLLLEALEMYKDDWNKVSEHVGSRTQDECILHFLR	0.124 ± 0.22
REWTEQEHLLLLEALEMYKDDWNKVSEHVGSRTQDECILHFLR	0.291 ± 0.1
REWTEQEALLLLEALEMYKDDWNKVSEHVGSRTQDECILHFLR	0.109 ± 0.074
REWTEQENLLLLEALEMYKDDWNKVSEHVGSRTQDECILHFLR	0.287 ± 0.2
REWTEQECLLLLEALEMYKDDWNKVSEHVGSRTQDECILHFLR	-0.006 ± 0.12
REWTEQESLLLLEALEMYKDDWNKVSEHVGSRTQDECILHFLR	-0.102 ± 0.065
REWTEQEVLLLLEALEMYKDDWNKVSEHVGSRTQDECILHFLR	0.02 ± 0.082
REWTEQEGLLLLEALEMYKDDWNKVSEHVGSRTQDECILHFLR	0.156 ± 0.093
REWTEQEFLLLLEALEMYKDDWNKVSEHVGSRTQDECILHFLR	-0.224 ± 0.14
REWTEQELLLLLEALEMYKDDWNKVSEHVGSRTQDECILHFLR	-0.001 ± 0.082
REWTEQEILLLLEALEMYKDDWNKVSEHVGSRTQDECILHFLR	0.046 ± 0.099
REWTEQEPLLLLEALEMYKDDWNKVSEHVGSRTQDECILHFLR	-0.843 ± 0.15
REWTEQEELLLLEALEMYKDDWNKVSEHVGSRTQDECILHFLR	0.099 ± 0.12
REWTEQETALLLEALEMYKDDWNKVSEHVGSRTQDECILHFLR	0.142 ± 0.064

Variant	abundance fitness
REWTEQETRLLLEALEMYKDDWNKVSEHVGSRTQDECILHFLR	0.168 ± 0.056
REWTEQETTLLLEALEMYKDDWNKVSEHVGSRTQDECILHFLR	0.243 ± 0.059
REWTEQETKLLLEALEMYKDDWNKVSEHVGSRTQDECILHFLR	0.308 ± 0.091
REWTEQETPLLLEALEMYKDDWNKVSEHVGSRTQDECILHFLR	-0.307 ± 0.072
REWTEQETCLLLEALEMYKDDWNKVSEHVGSRTQDECILHFLR	0.134 ± 0.093
REWTEQETDLLLEALEMYKDDWNKVSEHVGSRTQDECILHFLR	-0.093 ± 0.09
REWTEQETMLLLEALEMYKDDWNKVSEHVGSRTQDECILHFLR	0.2 ± 0.061
REWTEQETGLLLEALEMYKDDWNKVSEHVGSRTQDECILHFLR	0.147 ± 0.074
REWTEQETVLLLEALEMYKDDWNKVSEHVGSRTQDECILHFLR	-0.023 ± 0.085
REWTEQETSLLLEALEMYKDDWNKVSEHVGSRTQDECILHFLR	0.144 ± 0.055
REWTEQETHLLLEALEMYKDDWNKVSEHVGSRTQDECILHFLR	0.247 ± 0.066
REWTEQETFLLLEALEMYKDDWNKVSEHVGSRTQDECILHFLR	-0.16 ± 0.11
REWTEQETELLLEALEMYKDDWNKVSEHVGSRTQDECILHFLR	-0.016 ± 0.1
REWTEQETNLLLEALEMYKDDWNKVSEHVGSRTQDECILHFLR	0.099 ± 0.073
REWTEQETILLLEALEMYKDDWNKVSEHVGSRTQDECILHFLR	0.11 ± 0.096
REWTEQETYLLLEALEMYKDDWNKVSEHVGSRTQDECILHFLR	-0.024 ± 0.094
REWTEQETQLLLEALEMYKDDWNKVSEHVGSRTQDECILHFLR	0.271 ± 0.07
REWTEQETWLLLEALEMYKDDWNKVSEHVGSRTQDECILHFLR	-0.118 ± 0.094
REWTEQETLLLWEALEMYKDDWNKVSEHVGSRTQDECILHFLR	-0.145 ± 0.1
REWTEQETLLLCEALEMYKDDWNKVSEHVGSRTQDECILHFLR	-0.351 ± 0.33
REWTEQETLLLKEALEMYKDDWNKVSEHVGSRTQDECILHFLR	0.204 ± 0.26
REWTEQETLLLSEALEMYKDDWNKVSEHVGSRTQDECILHFLR	-0.169 ± 0.2
REWTEQETLPLLEALEMYKDDWNKVSEHVGSRTQDECILHFLR	-0.422 ± 0.23
REWTEQETLYLLEALEMYKDDWNKVSEHVGSRTQDECILHFLR	-0.024 ± 0.1

Variant	abundance fitness
REWTEQETLCLLEALEMYKDDWNKVSEHVGSRTQDECILHFLR	-0.057 ± 0.15
REWTEQETLHLLEALEMYKDDWNKVSEHVGSRTQDECILHFLR	-0.115 ± 0.086
REWTEQETLSLLEALEMYKDDWNKVSEHVGSRTQDECILHFLR	-0.009 ± 0.064
REWTEQETLKLLEALEMYKDDWNKVSEHVGSRTQDECILHFLR	0.028 ± 0.11
REWTEQETLWLLEALEMYKDDWNKVSEHVGSRTQDECILHFLR	-0.325 ± 0.13
REWTEQETLRLLEALEMYKDDWNKVSEHVGSRTQDECILHFLR	-0.208 ± 0.079
REWTEQETLDLLEALEMYKDDWNKVSEHVGSRTQDECILHFLR	-0.224 ± 0.19
REWTEQETLMLLEALEMYKDDWNKVSEHVGSRTQDECILHFLR	0.03 ± 0.25
REWTEQETLELLEALEMYKDDWNKVSEHVGSRTQDECILHFLR	0.346 ± 0.27
REWTEQETLFLLEALEMYKDDWNKVSEHVGSRTQDECILHFLR	-0.27 ± 0.13
REWTEQETLTLLEALEMYKDDWNKVSEHVGSRTQDECILHFLR	-0.226 ± 0.096
REWTEQETLVLLEALEMYKDDWNKVSEHVGSRTQDECILHFLR	0.029 ± 0.081
REWTEQETLNLLEALEMYKDDWNKVSEHVGSRTQDECILHFLR	-0.195 ± 0.099
REWTEQETLILLEALEMYKDDWNKVSEHVGSRTQDECILHFLR	-0.35 ± 0.097
REWTEQETLQLLEALEMYKDDWNKVSEHVGSRTQDECILHFLR	-0.018 ± 0.14
REWTEQETLGLLEALEMYKDDWNKVSEHVGSRTQDECILHFLR	-0.171 ± 0.1
REWTEQETLALLEALEMYKDDWNKVSEHVGSRTQDECILHFLR	-0.424 ± 0.11
REWTEQETLLTLEALEMYKDDWNKVSEHVGSRTQDECILHFLR	-0.412 ± 0.091
REWTEQETLLSLEALEMYKDDWNKVSEHVGSRTQDECILHFLR	-0.788 ± 0.14
REWTEQETLLPLEALEMYKDDWNKVSEHVGSRTQDECILHFLR	-1.19 ± 0.38
REWTEQETLLDLEALEMYKDDWNKVSEHVGSRTQDECILHFLR	-0.801 ± 0.16
REWTEQETLLQLEALEMYKDDWNKVSEHVGSRTQDECILHFLR	-0.556 ± 0.12
REWTEQETLLHLEALEMYKDDWNKVSEHVGSRTQDECILHFLR	-0.457 ± 0.21
REWTEQETLLMLEALEMYKDDWNKVSEHVGSRTQDECILHFLR	-0.357 ± 0.17

Variant	abundance fitness
REWTEQETLLCLEALEMYKDDWNKVSEHVGSRTQDECILHFLR	-0.17 ± 0.1
REWTEQETLLELEALEMYKDDWNKVSEHVGSRTQDECILHFLR	-0.628 ± 0.13
REWTEQETLLWLEALEMYKDDWNKVSEHVGSRTQDECILHFLR	-0.619 ± 0.12
REWTEQETLLNLEALEMYKDDWNKVSEHVGSRTQDECILHFLR	-0.575 ± 0.09
REWTEQETLLILEALEMYKDDWNKVSEHVGSRTQDECILHFLR	-0.564 ± 0.28
REWTEQETLLRLEALEMYKDDWNKVSEHVGSRTQDECILHFLR	-0.635 ± 0.14
REWTEQETLLALEALEMYKDDWNKVSEHVGSRTQDECILHFLR	-0.364 ± 0.085
REWTEQETLLKLEALEMYKDDWNKVSEHVGSRTQDECILHFLR	-0.588 ± 0.25
REWTEQRTLLLLEALEMYKDDWNKVSEHVGSRTQDECILHFLR	-0.887 ± 0.092
REWTEQWTLLLLEALEMYKDDWNKVSEHVGSRTQDECILHFLR	-1.27 ± 0.45
REWTEQLTLLLLEALEMYKDDWNKVSEHVGSRTQDECILHFLR	-0.833 ± 0.19
REWTEQKTLLLLEALEMYKDDWNKVSEHVGSRTQDECILHFLR	-0.921 ± 0.19
REWTEQVTLLLLEALEMYKDDWNKVSEHVGSRTQDECILHFLR	-0.815 ± 0.24
REWTEQYTLLLLEALEMYKDDWNKVSEHVGSRTQDECILHFLR	-1.26 ± 0.23
REWTEQPTLLLLEALEMYKDDWNKVSEHVGSRTQDECILHFLR	-0.804 ± 0.11
REWTEQDTLLLLEALEMYKDDWNKVSEHVGSRTQDECILHFLR	-0.557 ± 0.17
REWTEQFTLLLLEALEMYKDDWNKVSEHVGSRTQDECILHFLR	-1.44 ± 0.41
REWTEQATLLLLEALEMYKDDWNKVSEHVGSRTQDECILHFLR	-0.448 ± 0.19
REWTEQGTLLLLEALEMYKDDWNKVSEHVGSRTQDECILHFLR	-0.756 ± 0.12
REWTEQNTLLLLEALEMYKDDWNKVSEHVGSRTQDECILHFLR	-0.948 ± 0.28
REWTEQTTLLLLEALEMYKDDWNKVSEHVGSRTQDECILHFLR	-0.745 ± 0.2
REWTEQQTLLLLEALEMYKDDWNKVSEHVGSRTQDECILHFLR	0.1 ± 0.13
